Measured values published in patent US20260009052, “CAS12 PROTEINS AND USES THEREOF” (GUANGZHOU REFORGENE MEDICINE CO., LTD., published 2026).

Legend:
[1] = molecular target: T1, C12-279 Mut-02 (synthetic construct, Q186R,D352R); test: cell_activity; PAM TTG; +/-0.25
T1 chain: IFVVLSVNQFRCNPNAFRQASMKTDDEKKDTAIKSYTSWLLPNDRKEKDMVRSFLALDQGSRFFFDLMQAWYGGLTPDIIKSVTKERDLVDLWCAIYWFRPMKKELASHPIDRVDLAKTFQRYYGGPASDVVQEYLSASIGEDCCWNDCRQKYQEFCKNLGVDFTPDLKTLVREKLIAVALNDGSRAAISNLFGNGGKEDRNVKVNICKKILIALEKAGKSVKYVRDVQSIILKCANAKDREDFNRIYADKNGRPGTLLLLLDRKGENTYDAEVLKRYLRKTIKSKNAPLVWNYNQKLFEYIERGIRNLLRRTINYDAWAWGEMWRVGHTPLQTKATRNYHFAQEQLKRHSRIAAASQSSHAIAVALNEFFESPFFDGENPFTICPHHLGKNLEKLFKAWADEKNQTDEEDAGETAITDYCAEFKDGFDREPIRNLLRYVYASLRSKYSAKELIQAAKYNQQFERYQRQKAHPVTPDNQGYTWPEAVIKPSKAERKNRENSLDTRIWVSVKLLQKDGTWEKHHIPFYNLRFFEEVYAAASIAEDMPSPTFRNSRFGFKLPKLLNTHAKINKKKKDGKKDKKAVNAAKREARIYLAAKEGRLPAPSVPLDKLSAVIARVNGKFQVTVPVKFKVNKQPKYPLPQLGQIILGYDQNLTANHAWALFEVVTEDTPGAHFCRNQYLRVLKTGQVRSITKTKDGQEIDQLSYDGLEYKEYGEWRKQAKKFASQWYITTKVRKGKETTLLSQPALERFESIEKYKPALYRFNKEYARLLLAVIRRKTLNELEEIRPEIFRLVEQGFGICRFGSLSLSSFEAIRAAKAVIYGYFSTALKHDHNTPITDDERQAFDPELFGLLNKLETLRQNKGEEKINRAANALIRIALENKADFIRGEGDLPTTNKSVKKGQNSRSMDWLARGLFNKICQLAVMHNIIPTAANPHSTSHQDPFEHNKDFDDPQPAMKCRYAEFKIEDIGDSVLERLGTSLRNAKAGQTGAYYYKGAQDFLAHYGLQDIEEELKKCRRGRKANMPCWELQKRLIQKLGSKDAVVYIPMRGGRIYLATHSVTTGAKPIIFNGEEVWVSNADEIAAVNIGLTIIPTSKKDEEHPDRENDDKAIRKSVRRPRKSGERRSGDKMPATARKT
Method: (§1) Transfection: transfection was performed 12-14 h after plating. 1.5 μL PEI (Yeasen Biotechnology, 40815ES03, Polyethylenimine Linear (PEI) MW25000) and 500 ng mutation clone plasmid were added to 100 μL Opti-MEM per well of the 24-well plate, mixed, and added to the NAAN cell line for cell transfection after placing at room temperature for 20 min. After overnight transfection, a fresh culture medium was replaced, and the culture was continued for 72 h, followed by flow cytometry. Editing efficiencies of different mutant clones were characterized by the proportion of GFP-positive cells.
(§2) Editing efficiency of some selected mutants was tested in Reporter3 cell line using the same manner as described for the NAAN reporter system, except that the cell line was changed from NAAN cell line to Reporter3 cell line.

[2] = molecular target: T2, C12-279 D352R/Q186R/H350R (synthetic construct, Q186R,H350R,D352R); test: cell_activity; PAM TTG
T2 chain: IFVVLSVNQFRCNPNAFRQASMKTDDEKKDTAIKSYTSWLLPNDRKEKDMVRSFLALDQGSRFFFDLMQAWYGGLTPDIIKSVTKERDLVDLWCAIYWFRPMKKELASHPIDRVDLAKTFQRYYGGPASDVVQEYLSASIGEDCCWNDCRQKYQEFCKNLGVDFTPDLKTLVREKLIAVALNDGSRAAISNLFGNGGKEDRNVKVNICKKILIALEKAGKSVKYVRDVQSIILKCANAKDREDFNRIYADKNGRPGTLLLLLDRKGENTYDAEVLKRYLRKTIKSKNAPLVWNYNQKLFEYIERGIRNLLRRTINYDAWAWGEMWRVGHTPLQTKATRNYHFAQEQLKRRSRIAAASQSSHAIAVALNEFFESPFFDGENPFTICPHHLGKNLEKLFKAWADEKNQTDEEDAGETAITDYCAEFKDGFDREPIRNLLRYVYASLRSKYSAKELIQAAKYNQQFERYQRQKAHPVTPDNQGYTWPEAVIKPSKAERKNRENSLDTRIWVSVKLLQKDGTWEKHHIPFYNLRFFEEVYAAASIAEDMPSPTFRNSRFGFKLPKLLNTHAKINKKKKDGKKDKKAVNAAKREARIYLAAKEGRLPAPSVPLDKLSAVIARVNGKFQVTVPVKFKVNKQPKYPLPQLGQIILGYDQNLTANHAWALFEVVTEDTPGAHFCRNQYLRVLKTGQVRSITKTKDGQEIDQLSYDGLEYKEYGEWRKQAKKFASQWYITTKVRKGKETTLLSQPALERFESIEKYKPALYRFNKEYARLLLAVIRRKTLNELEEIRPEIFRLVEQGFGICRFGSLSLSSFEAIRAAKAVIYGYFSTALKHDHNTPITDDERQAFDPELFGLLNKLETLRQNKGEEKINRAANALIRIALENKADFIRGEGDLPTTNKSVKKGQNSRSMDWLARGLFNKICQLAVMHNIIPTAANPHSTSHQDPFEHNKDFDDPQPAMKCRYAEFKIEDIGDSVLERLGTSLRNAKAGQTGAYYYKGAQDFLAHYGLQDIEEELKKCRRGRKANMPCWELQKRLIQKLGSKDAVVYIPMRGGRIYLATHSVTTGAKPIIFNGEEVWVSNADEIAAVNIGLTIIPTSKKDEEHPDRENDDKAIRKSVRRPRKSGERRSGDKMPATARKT
Method: as §1, §2

B1: C12-279 Reporter3 sgRNA ; Reporter3 target (ssRNA ; dsDNA)
RNA: GUAAUGCGUCUCCCAUUGACGCCUCACCUCGCGACGCAAUGAUG
DNA 1: CTCACCTCGCGACGCAATGATG
DNA 2: CATCATTGCGTCGCGAGGTGAG
In the case of B1, the binding signal [1] is reported as 1.39 fold of C12-279 and the binding signal [2] is reported as 2.11 fold of C12-279.
